According to article PMC9023288, “The Burkholderia cenocepacia iron starvation σ factor, OrbS, possesses an on-board iron sensor” (Nucleic Acids Research, 2022):
Values joined by “and” are separate entries in the source; they are usually repeats but may differ in a detail not shown here. Equal entries are not always repeated.

B1: His-tagged Burkholderia cenocepacia OrbS (iron starvation ECF σ factor) (natural protein, UniProt B4E986 1-222, looked up)
chain: MAMAEVLDRPAAAAANPFLGSYPDLPPRAAPRARRASEPRAQGALLDVLISHRAMLVNVARGFVGCASRAEDVVHDVFVKLVEFPNQDAVRQPVAYVTRMVRNASIDACRRQNLENVYHTEEDDGFDVPSPEPTPEAALMTRDTLRRVWAALDDLPARSRAAFEMVRLREETLQTAARALNVSQTLVHFMVRDAERHCAECLDACHRGVACPVFLGGRARRR
notes: also called σ^OrbS; BCAL1688

Key:
[1] = target: His-tagged OrbS-CtetraA (OrbS with all four C-terminal cysteine residues replaced by alanine); assay: BLI
[2] = target: T1, E. coli core RNA polymerase (core RNAP, α2ββ'ω) (E. coli, UniProt P0A7Z4 1-329; P0A8V2 1-1342; P0A8T7 1-1407; P0A800 1-91); assay: BLI; settings: both partners purified
T1 construct: RNA polymerase subunit alpha, E. coli; RNA polymerase subunit beta, E. coli; RNA polymerase subunit beta', E. coli; RNA polymerase subunit omega, E. coli; Commercial core enzyme (NEB); also called E. coli RNAP core enzyme; core E. coli RNAP; source: bought: NEB; copies: 2 + + +

| Molecule | Kd [1] | kon [1] | Kd [2] | koff [2] | kon [2] |
| --- | --- | --- | --- | --- | --- |
| E. coli core RNA polymerase (core RNAP, α2ββ'ω) (from UniProt P0A7Z4 1-329; P0A8V2 1-1342; P0A8T7 1-1407; P0A800 1-91) (complex) | 20 nM and 160 nM | 15000 M⁻¹ s⁻¹ and 9100 M⁻¹ s⁻¹ | – | – | – |
| B1 | – | – | 83 nM | 0.00045 s⁻¹ | 5400 M⁻¹ s⁻¹ |
